Reference: article PMC12578637, “Structure of a distinct β-barrel assembly machinery complex in the Bacteroidota” (Nature Microbiology, 2025)

T1: BtBamA (Bt3725), B. thetaiotaomicron BamA with N-terminal His7 tag (B. thetaiotaomicron, UniProt Q8A1E1 20-885)
T1 sequence (looked up): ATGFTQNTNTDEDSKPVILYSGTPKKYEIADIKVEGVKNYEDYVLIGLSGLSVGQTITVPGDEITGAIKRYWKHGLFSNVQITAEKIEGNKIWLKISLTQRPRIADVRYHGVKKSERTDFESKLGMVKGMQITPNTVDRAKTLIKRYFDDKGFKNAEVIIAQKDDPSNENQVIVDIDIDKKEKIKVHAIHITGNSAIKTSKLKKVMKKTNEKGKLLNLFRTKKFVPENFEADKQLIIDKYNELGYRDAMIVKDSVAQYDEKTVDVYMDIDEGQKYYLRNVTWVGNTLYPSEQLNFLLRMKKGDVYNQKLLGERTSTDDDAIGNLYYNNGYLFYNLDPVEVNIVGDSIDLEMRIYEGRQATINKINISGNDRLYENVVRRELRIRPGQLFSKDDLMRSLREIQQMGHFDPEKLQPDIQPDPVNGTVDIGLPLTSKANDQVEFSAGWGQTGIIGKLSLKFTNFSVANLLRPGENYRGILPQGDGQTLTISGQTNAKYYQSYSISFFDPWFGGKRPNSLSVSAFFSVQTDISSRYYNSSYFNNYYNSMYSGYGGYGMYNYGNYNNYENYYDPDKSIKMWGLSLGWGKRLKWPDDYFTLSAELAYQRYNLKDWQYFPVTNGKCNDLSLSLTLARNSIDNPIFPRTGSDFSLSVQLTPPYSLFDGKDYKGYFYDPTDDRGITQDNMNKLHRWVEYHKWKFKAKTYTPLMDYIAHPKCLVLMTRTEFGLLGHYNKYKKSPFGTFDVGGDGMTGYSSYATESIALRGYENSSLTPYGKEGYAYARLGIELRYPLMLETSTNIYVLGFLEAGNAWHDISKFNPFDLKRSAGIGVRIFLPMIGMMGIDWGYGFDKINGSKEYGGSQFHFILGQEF

T2: BtBamH (Bt4306) (B. thetaiotaomicron (endogenous in B. …, UniProt Q89ZS0 18-542, tri-acylated lipid anchor on the N-terminal cysteine)); O-glycosylation (Ser309 among the sites))
T2 sequence (looked up): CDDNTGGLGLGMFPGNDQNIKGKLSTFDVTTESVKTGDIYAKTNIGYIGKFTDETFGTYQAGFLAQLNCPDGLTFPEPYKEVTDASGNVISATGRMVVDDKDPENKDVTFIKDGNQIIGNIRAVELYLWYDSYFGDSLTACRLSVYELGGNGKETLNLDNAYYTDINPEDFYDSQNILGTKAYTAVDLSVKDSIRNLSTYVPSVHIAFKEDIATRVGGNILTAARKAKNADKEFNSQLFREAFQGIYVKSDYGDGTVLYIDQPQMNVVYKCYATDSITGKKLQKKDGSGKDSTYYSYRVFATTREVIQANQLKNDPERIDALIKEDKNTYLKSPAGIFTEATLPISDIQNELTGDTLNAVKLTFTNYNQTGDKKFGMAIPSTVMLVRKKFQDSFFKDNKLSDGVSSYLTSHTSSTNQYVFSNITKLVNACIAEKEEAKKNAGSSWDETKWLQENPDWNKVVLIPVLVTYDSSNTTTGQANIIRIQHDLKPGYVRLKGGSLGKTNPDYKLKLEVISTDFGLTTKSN

T3: PgBamA, BamA of P. gingivalis ATCC 33277 (P. gingivalis (endogenous in P. …, UniProt B2RHH3 20-891))
T3 construct: BamA of Porphyromonas gingivalis strain ATCC 33277; Periplasmic part only very weak, not modelled, possibly clipped by gingipains; EL3 (39 residues) has no density; source: endogenous, P. gingivalis expressing His-tagged BamH, membranes solubilised in 1% DDM
T3 sequence (looked up): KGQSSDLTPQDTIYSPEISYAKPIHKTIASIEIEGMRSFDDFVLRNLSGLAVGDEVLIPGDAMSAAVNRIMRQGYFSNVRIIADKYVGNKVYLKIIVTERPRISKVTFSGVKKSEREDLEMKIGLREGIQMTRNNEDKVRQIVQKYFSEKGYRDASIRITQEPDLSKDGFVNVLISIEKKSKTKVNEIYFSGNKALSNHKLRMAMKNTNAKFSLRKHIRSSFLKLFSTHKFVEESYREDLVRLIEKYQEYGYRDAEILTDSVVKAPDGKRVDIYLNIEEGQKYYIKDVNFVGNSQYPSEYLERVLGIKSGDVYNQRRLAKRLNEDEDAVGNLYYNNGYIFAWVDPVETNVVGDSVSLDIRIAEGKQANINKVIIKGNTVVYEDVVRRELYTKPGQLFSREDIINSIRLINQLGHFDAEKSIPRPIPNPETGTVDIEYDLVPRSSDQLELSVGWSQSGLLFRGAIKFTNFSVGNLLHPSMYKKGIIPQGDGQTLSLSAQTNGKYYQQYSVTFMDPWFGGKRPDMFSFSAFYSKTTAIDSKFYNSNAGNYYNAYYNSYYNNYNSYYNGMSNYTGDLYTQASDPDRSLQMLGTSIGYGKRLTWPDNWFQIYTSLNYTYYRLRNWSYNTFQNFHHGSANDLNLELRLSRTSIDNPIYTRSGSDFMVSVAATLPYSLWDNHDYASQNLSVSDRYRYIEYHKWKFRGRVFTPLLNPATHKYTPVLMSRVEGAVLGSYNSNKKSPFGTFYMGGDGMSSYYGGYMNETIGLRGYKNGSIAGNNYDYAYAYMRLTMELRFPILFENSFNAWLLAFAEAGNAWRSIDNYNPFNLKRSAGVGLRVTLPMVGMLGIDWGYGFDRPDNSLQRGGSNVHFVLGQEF

B1: BtBamD (Bt0573) (natural protein, UniProt Q8AA92 18-267, looked up)
chain: CGEYNKLLKSTDYEYKYEAAKNYFAKGQYNRSATLLNELITILKGTDKAEESLYMLGMSYYNQKDYQTAAQTFITYFNTYPRGTFTELARFHAGKSLFLDTPEPRLDQSSTYQAIQQLQMFMEYFPNSTKKQEAQDMIFALQDKLVLKELYSAKLYYNLGNYLGNNYESCVITAQNALKDYPYTDYREELSILILRARHEMAIYSVEDKKMDRYRETIDEYYAFKNEFPESKYLKEAEKIFNESQKVIKD
B2: BtBamI (Bt3727) (natural protein, UniProt Q8A1D9 22-493, looked up)
chain: CLDNDNEVNYSPDATIRAFELDTIGYGVNYKFTIDQVSRLIYNVDSLPVNADTIINSILIKTLTTASGIVTMKDQNDQDSIVNINDSIDLTKYVNATEKNNFLVLKVWAPNMEVQNEYKVNIRMHTMVPDSLSWGKDPIANNPVRNTAEKQKVVTLGDKILLFAQNNEIYSTAIPAGSPTDRLNYGQKWDKETTGKLPDGADVTSIIRFVDKLYLLTKNKEVYNSNDGLTWTKDEVLNSDGVSVTNLITSFSDSDGSNHKKINGIAGIVEINGEKYFSFAEKDVTWEKDIDKLTVVPAEFPINNLSADVYATESGTLNAIVVGNTEDGLDNDTATVVWASEDGKAWIPMEIPSNNNCPKLVDPSIIHYNDAFYICGKETKDDAKGFQKFYTSPTLLVWKGVDRMFMLPGILPPVKLEGGVTQHPSLHESSFKGKEVNYTMVVDRNHYIWMVGGQGIDKIWRGRVNKLGFLIQ
modifications: lipid anchor cysteine; O-glycosylation at 10 sites (Ser67 among them)
B3: BtBamK (Bt3949) (natural protein, UniProt Q8A0S2 21-214, looked up)
chain: CDDSKTYAEMLEDEKNAVNKFIKDKGIRIISQDEFEKNDTVTNLERNEYVALSDGVYMQIVDRGSAENKTDTFANNNEICVRYIEEDIMTRDTTCFNVFLEEWGDANQLYTNPAVFRYVAEGSYVYGTFIQMDYYWASYYQSTAVPAGWLLALPFVRNYAHVRLIVPSKVGHSSAQQYVNPYYYDIWTFSKALN
modifications: lipid anchor cysteine; O-glycosylation sites
B4: PgBamG, BamG of P. gingivalis ATCC 33277 (natural protein, UniProt B2RKY8 31-434, looked up)
chain: QNNNFTESPYTRFGLGRLGERTTISGHSMGGLGVGLRQGTYVNAVNPASYSAVDSMTFIFDFGASTGITWYAENGKKDNRKMGNIEYFAMLFPISKSIAMSAGVLPYSASGYQFGSVDQVEGGSVQYTRKYLGTGNLNDLYVGIGATPFKNFSIGANASFLFGRFTHSRQVIFSTEAPYNPVHLSTLYLKAAKFDFGMQYHLPLKSDRSLVIGAVYSPRVKMHSELTQIKNQVQNGVVVESETQEYIKGMDYYTLPHTLGIGFSYEKKDKLLLGADVQYSKWKGEKFYKSDCKFQDRIRVSLGGEIMPDINAVGIWPKVRYRFGLHGENSYLKVPTKGGVYQGYHIVGAVFGIGIPLNDRRSFVNVSLEYDRLIPKEGMIKENALKLTFGLTFNESWFKKLKLN
modifications: O-glycosylation (Ser85)
notes: BamG of Porphyromonas gingivalis strain ATCC 33277; source: endogenous, P. gingivalis expressing His-tagged BamH, membranes solubilised in 1% DDM
B5: PgBamJ, BamJ of P. gingivalis ATCC 33277 (natural protein, UniProt B2RH82 25-185, looked up)
chain: CEKRPNEEKQRRHDNEVAFNAYADSTNFKKVSVDGSTAYVYMRWITNGTGTEHPIATSRVEVHYQTYRLVGNIMVDGNYNSEKPARITLYRNEKDKSITGFRIALQNMVIGDECEFIVPWYLAYGSKGVPASSANLVPIPSYSALRFIVKLSGIIPEEDKK
notes: BamJ (peptidyl-prolyl isomerase) of Porphyromonas gingivalis strain ATCC 33277; source: endogenous, P. gingivalis expressing His-tagged BamH, membranes solubilised in 1% DDM
B6: PgBamK, BamK of P. gingivalis ATCC 33277 (natural protein, UniProt B2RK12 24-203, looked up)
chain: CKKSDIKSLKEMKKDERKAIESFINRMGFTIKEGHEGQSEFDPDIMYHFDNDLYMQVLDKGKEPPVLNKTKINVRMEGFMFNRERDSIYVFNSLTSGGFQESVFRYIYKYNDGDIHFELIKCTTGSNLDMFVCEGVAFPMTMLGNKARVRLIVPFRIGPESLYSRGLTGYYKEVEYVFRD
notes: BamK (peptidyl-prolyl isomerase) of Porphyromonas gingivalis strain ATCC 33277; source: endogenous, P. gingivalis expressing His-tagged BamH, membranes solubilised in 1% DDM
B7: PgBamH (PGN_1735) with C-terminal 7His tag (natural protein, P. gingivalis, UniProt B2RLK9 19-455, looked up)
chain: CDDDLSPIGGSIQPPSDPVSARVDTLEFSVKTIPMGDIYNRTNYTLLGDLTDPEYGDLKADYIMQFKSPRNFKFKYPPKDGKIDSVKLSINYDSWAGDSTSIMKVSIYKINKAIPPSYYSTQELASLLDETQIIASQTFKAGNDSAFHRVRIPLPNEIGQKIYDLSVNNPSVFDTQESFYNNVLGGLYVTTTTGTGVVLSVYNTQMAIFYSYKVAADSTATASETFVNTSESYQVNHIKNSQISHLLQENDSLSCVKSPAGVMTQLTISKEQFTDAFTSNLSSSLAWQIGEAQFNISASKPSEGLMLSPPSYLLLLPQDSVRNFFEQEQTELMQPRTAFLSTIYNIKKREYRFSNISRLLMEHIKNNTEKTPEGKPYITKDLVLVLLPVKRQVAGASNSLYTSQLNNFMFPSGVKLQLGKKNKTARIGVYSMTYTDN
modifications: tri-acylated lipid anchor; O-glycosylation (7 sites)
notes: BamH (PGN_1735) of Porphyromonas gingivalis strain ATCC 33277, surface-exposed lipoprotein; 88 residues shorter than BtBamH; also called His-tagged BamH; source: C-terminally His-tagged by homologous recombination in P. gingivalis; membranes solubilised in 1% DDM; not shown: His7, C-terminal, kept

Legend:
[1] = target: T1, BtBamA (Bt3725), B. thetaiotaomicron …; experiment: affinity purification with mass spectrometry; chromosomally His7-tagged BamA as bait; B. thetaiotaomicron total membranes solubilised in TBS with 0.75% DDM and 0.75% DM; Ni IMAC, SEC in 10 mM HEPES-NaOH, 100 mM NaCl, 0.03% DDM pH 7.5; SDS-PAGE bands of pooled SEC peak fractions identified by peptide fingerprinting; IMAC elutions by quantitative proteomics against untagged wild-type cells; conditions: partners not purified
BtBamH (Bt4306) = target: T2, BtBamH (Bt4306); experiment: cryo-EM structure; BtBAM complex co-purified through BamAhis from native membranes, in DDM, 8 mg/ml; two 3D classes (3.28 Å and 3.46 Å); AF2 models docked and refined; conditions: both partners purified
[2] = target: T3, PgBamA, BamA of P. gingivalis ATCC 33277; experiment: cryo-EM structure; PgBAM complex co-purified through C-terminally His-tagged BamH from P. gingivalis membranes, in DDM, 4.9 mg/ml; 3.24 Å class without periplasmic density; AF2 models docked and refined; conditions: both partners purified
[3] = target: B7; experiment: as above; conditions: both partners purified

## B1
[1]
  binding result: binds

## B2
BtBamH (Bt4306)
  binding result: binds

## B3
BtBamH (Bt4306)
  binding result: binds

## B4
[2]
  binding result: binds
[3]
  binding result: binds

## B5
[3]
  binding result: binds

## B6
[3]
  binding result: binds

## B7
[2]
  binding result: binds
